Laboratory results taken from publication PMC1762332, “Catalases Are NAD(P)H-Dependent Tellurite Reductases” (PLoS ONE, 2006).

Substrate: O=[Te](O)O
Experiment: purified protein
Conditions: NADPH 10 mM (50 µl of 0.2 M in 1 ml), Tris-HCl pH 8.0 (50 mM), aerobic

B1: bovine liver catalase (Bos taurus) (protein)
chain: ADNRDPASDQMKHWKEQRAAQKPDVLTTGGGNPVGDKLNSLTVGPRGPLLVQDVVFTDEMAHFDRERIPERVVHAKGAGAFGYFEVTHDITRYSKAKVFEHIGKRTPIAVRFSTVAGESGSADTVRDPRGFAVKFYTEDGNWDLVGNNTPIFFIRDALLFPSFIHSQKRNPQTHLKDPDMVWDFWSLRPESLHQVSFLFSDRGIPDGHRHMNGYGSHTFKLVNANGEAVYCKFHYKTDQGIKNLSVEDAARLAHEDPDYGLRDLFNAIATGNYPSWTLYIQVMTFSEAEIFPFNPFDLTKVWPHGDYPLIPVGKLVLNRNPVNYFAEVEQLAFDPSNMPPGIEPSPDKMLQGRLFAYPDTHRHRLGPNYLQIPVNCPYRARVANYQRDGPMCMMDNQGGAPNYYPNSFSAPEHQPSALEHRTHFSGDVQRFNSANDDNVTQVRTFYLKVLNEEQRKRLCENIAGHLKDAQLFIQKKAVKNFSDVHPEYGSRIQALLDKYNEEKPKNAVHTYVQHGSHLSAREKANL
- Km: 900 µM
